Target: Jil-1 peptide 984-1004 F989A (Drosophila, UniProt Q9V3I5 984-994, F989A)
Assay: ITC

- Kd: 122 µM
B1: dP75 IBD-containing C-terminus region (residues 209-445) (domain or fragment)
chain: AAVTPIQKRSRPVNNIRNEMLMVYMPTAKCLGIVINYKKPESFESAAAEEAWMENARKEALELKLKLESGQINPESMPDRIVVEPTRSEIPKQEALRFIEELIEHEDALFMERDFIQLSQQLRECLGLRRANVGKCLEILEQFKEVEFTKLMLLRNPECVDIMRRLRRYVGNLELWKMDLSDEVEFKERAQTIRKVSSGIYDGFKSLFNPEPESEDNFWIDFCEKVKIYKTYTKNIN
